Where a chain is given by its changes, count along the chain named.
Experiments:
[1] = biological target: CLL183 Fab (Fab of the BcR IG of CLL subset no. 4 case CLL183) (human); test: AUC; sedimentation equilibrium, 0.1, 0.15 and 0.26 mg ml^-1 in storage buffer, 20 °C, four speeds, global fit with a two-state self-association model; dimer to monomers
[2] = biological target: CLL183 Fab (Fab of the BcR IG of CLL subset no. 4 case CLL183) (human); test: AUC; sedimentation velocity, absorbance detection, 72,756g, 20 °C; CLL240 and wild-type CLL183 at 0.1, 0.2 and 0.4 mg ml^-1, CLL183 mutants and the other Fabs up to 1 mg ml^-1; storage buffer (50 mM Tris pH 7, 100 mM glycine) and PBS; monomer-dimer; koff from simultaneous fit of three …
[3] = biological target: CLL240 Fab (Fab of the BcR IG of CLL subset no. 4 case CLL240) (human); test: AUC; sedimentation equilibrium, 0.1, 0.15 and 0.26 mg ml^-1 in storage buffer, 20 °C, four speeds, global fit with a two-state self-association model; dimer to monomers
[4] = biological target: CLL240 Fab (Fab of the BcR IG of CLL subset no. 4 case CLL240) (human); test: AUC; sedimentation velocity, absorbance detection, 72,756g, 20 °C; CLL240 and wild-type CLL183 at 0.1, 0.2 and 0.4 mg ml^-1, CLL183 mutants and the other Fabs up to 1 mg ml^-1; storage buffer (50 mM Tris pH 7, 100 mM glycine) and PBS; monomer-dimer; koff from simultaneous fit of three …
[5] = biological target: P11475 IgM Fab fragment (Fab of the BcR IG of CLL subset no. 2 case P11475) (human); test: ITC; dilution ITC, VP-ITC, 20 °C; 20 mM Tris pH 7.4, 100 mM glycine, 100 mM NaCl; Fab at the maximum achievable concentration (300-400 μM) injected into buffer; dimer to monomers
[6] = biological target: P11475 IgM Fab fragment (Fab of the BcR IG of CLL subset no. 2 case P11475) (human); test: AUC; sedimentation velocity, absorbance detection, 72,756g, 20 °C; CLL240 and wild-type CLL183 at 0.1, 0.2 and 0.4 mg ml^-1, CLL183 mutants and the other Fabs up to 1 mg ml^-1; storage buffer (50 mM Tris pH 7, 100 mM glycine) and PBS; monomer-dimer; koff from simultaneous fit of three …

B1: CLL183 Fab (Fab of the BcR IG of CLL subset no. 4 case CLL183) (Fab, V domains shown)
VH: QLQLQQWGAGLLKPSETLSLTCAVYGGSFSGYYWTWIRQSPGKGLEWIGEINHSGSTTYNPSLKSRVTISVDTSKNQFSLKLNSVTAADTAVYYCARGYGDTPTIRRYYYYGMDVWGQGTTVTVSS
VL: DVVMTQSPLSLPVTLGQPASISCRSSQSLVHSDGNTYLNWFQQRPGQSPRRLIYKVSDRDSGVPDRFSGSGSGTDFTLKISRVEAEDVGLYYCMQGTHWPPYTFGQGTKVEIK
Kd [1]: 15.6 µM | koff [2]: 1.99e-05 s⁻¹ | stoichiometry N [2]: 2

B2: CLL240 Fab (Fab of the BcR IG of CLL subset no. 4 case CLL240) (Fab, V domains shown)
VH: QVQLQQWGAGLLKPSETLSLNCAVYGESFSGYYWSWIRQPPGKGLEWIGEINHSGSTNYNPSLKSRVTISVDTSKNQFSLKLSSVTAADAAIYYCARGYADTPVFRRYYYYGMDVWAKGTTVTVSS
VL: B1 VL with V2I, L90V
Kd [3]: 14 µM | koff [4]: 0.000263 s⁻¹ | stoichiometry N [4]: 2

B3: P11475 IgM Fab fragment (Fab of the BcR IG of CLL subset no. 2 case P11475) (Fab, V domains shown)
VH: EVQLVESGGGLVKPGGSLRLSCAASGFTFRSYSMNWVRQAPGKGLEWVSSIISSSSYIYYADSVKGRFTISRDNAKNSLYLQMNSLRAEDTALYYCARDQNAMDVWGQGTTVTVSS
VL: SYELTQPPSVSVAPGKTARITCAGNNIGSKSVHWYQQKPGQAPVLVIYYDSDRPSGIPERFSGSNSGNTATLTISRVEAGDEADYYCQVWDSGSDHPWVFGGGTKLTVL
Kd [5]: 430 µM | dH [5]: -5.4 kcal/mol | koff [6]: > 0.01 s⁻¹

— article PMC5472768
